Consider 17 molecules from US20230125550A1 (ARCELLX, published 2023).

The chains are these.
T1: recombinant human CD123-Fc (human, UniProt P26951 19-305)
T1 construct: not shown: Fc part of CD123-Fc
T1 sequence: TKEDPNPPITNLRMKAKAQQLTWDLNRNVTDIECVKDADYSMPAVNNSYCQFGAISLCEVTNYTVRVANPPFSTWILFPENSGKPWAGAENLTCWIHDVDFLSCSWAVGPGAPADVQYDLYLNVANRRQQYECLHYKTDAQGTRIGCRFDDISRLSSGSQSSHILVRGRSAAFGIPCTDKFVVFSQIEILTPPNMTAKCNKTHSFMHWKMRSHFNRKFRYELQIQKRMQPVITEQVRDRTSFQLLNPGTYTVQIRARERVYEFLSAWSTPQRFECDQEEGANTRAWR

B1: SEQ ID NO 634 (designed binder)
chain: MGSWHEFIWRLDAIEERLWALGGSEAELAWFETEIATFEAQLQDYKGKGNPEVEALEWEAIAIAWELDAYRHN
B2: SEQ ID NO 637 (designed binder)
chain: MGSWWEFEDRLWAIEQRLDALGGSEAELAVFENSIAKFEDMLQVYKGKGNPEVEALHEEADAIIWELYAYRHN
B3: SEQ ID NO 629 (designed binder)
chain: MGSWFEFPYRLEAIEERLYALGGSEAELAQFEQFIAWFEMDLQDYKGKGNPEVEALWFEANAIVEELDAYRHN
B4: SEQ ID NO 639 (designed binder)
chain: MGSWWEFLDRLEAIEYRLQALGGSEAELAVFEWEIAMFEDHLQGYKGKGNPEVEALHSEAHAIISELSAYRHN
B5: SEQ ID NO 641 (designed binder)
chain: MGSWWEFYDRLTAIEARLWALGGSEAELADFEEGIADFEYDLQDYKGKGNPEVEALFWEAWAIQSELTAYRHN
B6: SEQ ID NO 632 (designed binder)
chain: MGSWDEFDARLWAIEERLWALGGSEAELAEFEFMIAAFEDVLQEYKGKGNPEVEALMGEANAIVMELDAYRHN
B7: SEQ ID NO 636 (designed binder)
chain: MGSWFEFQWRLEAIEDRLWALGGSEAELAEFETIIAGFEEQLQVYKGKGNPEVEALEEEAMAIQTELHAYRHN
B8: SEQ ID NO 628 (designed binder)
chain: MGSWWEFEQRLDAIETRLWALGGSEAELAYFEHIIADFEDELQIYKGKGNPEVEALGWEAFAIDGELTAYRHN
B9: SEQ ID NO 644 (designed binder)
chain: MGSWEEFFFRLEAIDDRLYALGGSEAELALFEEVIAYFEQDLQWYKGKGNPEVEALYVEAYAIQEELYAYRHN
B10: SEQ ID NO 635 (designed binder)
chain: MGSWYEFYWRLEAIEERLWALGGSEAELAEFEKAIATFEDQLQTYKGKGNPEVEALETEALAIHAELEAYRHN
B11: SEQ ID NO 642 (designed binder)
chain: MGSWYEFEDRLAAIEARLWALGGSEAELADFEEEIAYFEHGLQWYKGKGNPEVEALESEAMAIIDELHAYRHN
B12: SEQ ID NO 633 (designed binder)
chain: MGSWYEFWRRLDAIEERLWALGGSEAELAMFETDIAGFEWMLQLYKGKGNPEVEALEHEAWAINSELDAYRHN
B13: SEQ ID NO 638 (designed binder)
chain: MGSWWEFEDRLWAIDRRLMALGGSEAELAVFEQMIAHFEQILQVYKGKGNPEVEALHFEAHAIGMELAAYRHN
B14: SEQ ID NO 630 (designed binder)
chain: MGSWVEFYDRLEAIEIRLWALGGSEAELADFESFIAHFEDDLQAYKGKGNPEVEALMDEANAIVFELDAYRHN
B15: SEQ ID NO 631 (designed binder)
chain: MGSWVEFWDRLDAIEERLWALGGSEAELAEFEFMIAMFEQHLQEYKGKGNPEVEALIPEAGAIDKELTAYRHN
B16: SEQ ID NO 640 (designed binder)
chain: MGSWAEFEDRLAAIERRLEALGGSEAELADFESSIAWFEPDLQYYKGKGNPEVEALMYEAEAIFSELYAYRHN
B17: SEQ ID NO 643 (designed binder)
chain: MGSWWEFSWRLEAIETRLDALGGSEAELAFFEMDIAWFEQDLQLYKGKGNPEVEALEEEAYAIYEELEAYRHN

The assay concerns the target T1, recombinant human CD123-Fc. Nature of the assay: phage ELISA, A450 target/A450 IgG1-Fc. The method, boiled down: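 Using VCSM13 helper phage, phage were rescued in 96-well format from single phagemid colonies taken from panning output. Wells were coated with 1.3 microg/ml goat anti-human IgG1-Fc antibody and captured 5 nM recombinant human target or IgG1-Fc before 50 microl of 5×-diluted phage were added, with binding read at 450 nm via HRP-conjugated anti-M13 antibody. Each clone's ELISA ratio is its target-to-IgG1-Fc absorbance, averaged across all screened wells with that clone.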
Turning to B1, the ELISA_avg was found to be 3.3 ratio.

For B2, the ELISA_avg is 4.4 ratio.

As to B3, the ELISA_avg was 3.1 ratio.

Consider B4, for which the ELISA_avg stood at 3.1 ratio.

For the molecule B5, the ELISA_avg turned out to be 3.2 ratio.

As to B6, the ELISA_avg was 4.3 ratio.

Take B7: the ELISA_avg is 3.4 ratio.

On to B8, for which the ELISA_avg turned out to be 4.7 ratio.

As to B9, the ELISA_avg turned out to be 3.2 ratio.

Consider B10, for which the ELISA_avg amounted to 3.7 ratio.

As for B11, the ELISA_avg worked out at 3.8 ratio.

For B12, the ELISA_avg is 3.6 ratio.

As for B13, the ELISA_avg amounted to 4.6 ratio.

Turning to B14, the ELISA_avg was found to be 4 ratio.

As for B15, the ELISA_avg amounted to 10 ratio.

For the molecule B16, the ELISA_avg was 4.2 ratio.

As for B17, the ELISA_avg is 3.3 ratio.
